The source of these data is patent publication US20200317768A1 (published 2020).

In experiment [1] the target is T1, Human latent myostatin (human, UniProt O14793 25-266; O14793 267-375).
T1 construct: Biotinylated in the ELISAs; also called human myostatin latent form
T1 sequence 1: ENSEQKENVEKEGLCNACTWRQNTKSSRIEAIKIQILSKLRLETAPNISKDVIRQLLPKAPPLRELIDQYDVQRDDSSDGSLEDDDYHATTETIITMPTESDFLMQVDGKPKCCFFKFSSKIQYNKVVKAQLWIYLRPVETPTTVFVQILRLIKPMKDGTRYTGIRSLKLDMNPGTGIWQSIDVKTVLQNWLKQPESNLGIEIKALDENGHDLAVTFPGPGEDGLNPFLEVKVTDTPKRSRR
T1 sequence 2: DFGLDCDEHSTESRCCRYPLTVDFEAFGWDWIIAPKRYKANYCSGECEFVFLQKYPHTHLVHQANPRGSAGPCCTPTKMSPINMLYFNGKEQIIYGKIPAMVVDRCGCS
Put plainly: SPR (BIACORE T200), 37 C, pH7.4, avidity condition (capture 185 RU), 1:1 fit; pH 7.4. Background: SPR reads the build-up and loss of mass on a sensor chip optically.

The target in experiment [2] is T1, Human latent myostatin. Put plainly: SPR (BIACORE T200), 37 C, pH7.4, 1:1 fit; title prints avidity, by the text the affinity condition (capture 18.5 RU); pH 7.4. On the procedure:
(§1) The kinetic parameters of anti-latent myostatin antibodies against human, cynomolgus monkey (cyno), and mouse latent myostatin were assessed at 37° C. at pH7.4 using a BIACORE® T200 instrument (GE Healthcare). ProA/G (Pierce) was immobilized onto all flow cells of a CM4 chip using amine coupling kit (GE Healthcare). Anti-latent myostatin antibody and analytes were prepared in ACES pH7.4 (20 mM ACES, 150 mM NaCl, 1.2 mM CaCl₂), 0.05% TWEEN® 20, 0.005% NaN₃). […] Then human, cyno, or mouse latent myostatin was injected at 3.125 to 50 nM prepared by two-fold serial dilution, followed by dissociation. The sensor surface was regenerated with 25 mM NaOH. Kinetic parameters were determined by processing and fitting the data to a 1:1 binding model using BIACORE® T200 Evaluation software, version 2.0 (GE Healthcare).
(§2) All experimental settings were the same as in Example 7, except that measurements were also performed in ACES pH5.8 buffer in addition to ACES pH7.4 condition. Some antibodies were only measured against human latent myostatin. Antibody capture level was aimed at 185 RU and 18.5 RU, for avidity and affinity assay, respectively. Kinetic parameters were determined using 1:1 Binding fitting using BIACORE® T200 Evaluation software, version 2.0 (GE Healthcare).

In experiment [3] the target is T2, Mouse latent myostatin (mouse, UniProt O08689 26-267; O08689 268-376).
T2 construct: signal 1-24
T2 sequence 1: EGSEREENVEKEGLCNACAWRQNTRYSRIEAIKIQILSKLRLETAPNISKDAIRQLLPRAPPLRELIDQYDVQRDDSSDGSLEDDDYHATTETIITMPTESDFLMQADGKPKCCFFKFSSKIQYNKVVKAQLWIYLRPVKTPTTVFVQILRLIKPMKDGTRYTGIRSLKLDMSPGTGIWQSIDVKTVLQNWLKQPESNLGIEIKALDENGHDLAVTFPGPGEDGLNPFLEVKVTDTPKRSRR
T2 sequence 2: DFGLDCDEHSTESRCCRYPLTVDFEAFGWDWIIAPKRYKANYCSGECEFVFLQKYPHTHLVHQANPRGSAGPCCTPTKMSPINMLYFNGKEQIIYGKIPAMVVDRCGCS
Described as above. On the procedure: as §1, §2

Experiment [4] has as its target T1, Human latent myostatin. Put plainly: SPR (BIACORE) as in Example 7; antigen not given, values equal those for human latent myostatin in Table 7. As for the experimental part:
as §1
Humanized antibodies were transiently expressed in FS293-F cells, and HEK Blue Assay and BIACORE® analysis were carried out as described above.

Experiment [5] addresses T1, Human latent myostatin. Put plainly: SPR (BIACORE T200), 37 C, pH5.8, 1:1 fit; title prints avidity, by the text the affinity condition (capture 18.5 RU); pH 5.8. As for the experimental part: as §1, §2
The target of experiment [6] is T3, Cynomolgus monkey latent myostatin (cynomolgus monkey, UniProt Q95J86 25-266; Q95J86 267-375).
T3 construct: signal 1-24; also called Cyno latent myostatin
T3 sequence 1: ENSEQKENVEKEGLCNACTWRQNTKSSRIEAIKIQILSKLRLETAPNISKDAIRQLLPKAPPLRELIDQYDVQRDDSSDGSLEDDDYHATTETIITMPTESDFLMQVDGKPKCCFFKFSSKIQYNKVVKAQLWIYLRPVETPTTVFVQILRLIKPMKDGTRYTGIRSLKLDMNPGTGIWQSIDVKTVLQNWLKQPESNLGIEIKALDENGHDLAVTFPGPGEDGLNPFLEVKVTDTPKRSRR
T3 sequence 2: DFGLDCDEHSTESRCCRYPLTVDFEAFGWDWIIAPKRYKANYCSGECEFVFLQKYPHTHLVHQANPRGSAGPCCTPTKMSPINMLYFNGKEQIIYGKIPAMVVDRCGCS
The experiment is described as above. On the procedure:
as §1, §2

Experiment [7] has as its target T2, Mouse latent myostatin. The description is as above. As for the experimental part: as §1, §2
In experiment [8] the target is T1, Human latent myostatin. Put plainly: SPR (BIACORE), additional dissociation phase at pH5.8 after dissociation at pH7.4, Scrubber 2.0 fit. On the procedure: Each amino acid in the CDRs was individually mutated to histidine using In-Fusion HD Cloning Kit (Clontech Inc, or Takara Bio company) according to the manufacturer's instructions. […] All histidine-substituted variants were evaluated by a modified BIACORE® assay as compared to that described above. Briefly, an additional dissociation phase at pH5.8 was integrated into the BIACORE® assay immediately after the dissociation phase at pH7.4. This is to assess the pH-dependent dissociation between antibody (Ab) and antigen (Ag) from the complexes formed at pH7.4 as opposed to the corresponding dissociation at pH5.8. The dissociation rate at pH5.8 buffer was determined by processing and fitting data using the Scrubber 2.0 (BioLogic Software) curve fitting software.
Antibodies with a combination of these mutations in the CDRs were then generated.

B1: MS_M103205H000-SG1/M103202LO00-SK1 (antibody, human IgG1, kappa, V domains shown)
VH: QVTLKESGPVLVKPTETLTLTCTVSGIDLSSYDISWVRQAPGKGLEWVGIISYAGSTYYASWAKGRLTISKDTSKNQVVLTMTNMDPVDTATYYCARGVPAYSTGGDLWGQGTLVTVSS
VL: DIVMTQSPATLSLSPGERATLSCQSSQSVYDNNWLSWFQQKPGQPPKLLIYWASTLASGVPSRFSGSGSGTDFTLTISSLQPEDAATYYCAGGYGGGLYAFGQGTKVEIKR
notes: Humanized MST1032, not pH-dependent; also called MS1032LO00-SG1; Ab001
For orientation: koff means a measure of how fast the partners let go of each other. As usually defined, the kon is the second-order rate constant of association. Consider B1, for which the Kd in experiment [1] was found to be 75 pM; in experiment [2], 230 pM; in experiment [3], 122 pM; in experiment [4] it was 75 pM; in experiment [5] it was 215 pM; in experiment [6], 139 pM. Besides, the Kd in experiment [7] is 43.8 pM. The koff in experiment [1] amounted to 9.52e-05 s⁻¹; in experiment [2], 0.000245 s⁻¹; in experiment [3], 0.00016 s⁻¹; in experiment [4], 9.52e-05 s⁻¹; in experiment [5] it was 0.000235 s⁻¹; in experiment [6] it was 0.000196 s⁻¹. Also, the koff in experiment [7] is 7.08e-05 s⁻¹; in experiment [8], 2.92e-05 s⁻¹. In addition, the kon in experiment [1] came out at 1.27e+06 M⁻¹ s⁻¹; in experiment [2], 1.07e+06 M⁻¹ s⁻¹; in experiment [3], 1.31e+06 M⁻¹ s⁻¹; in experiment [4] it was 1.27e+06 M⁻¹ s⁻¹; in experiment [5] it was 1.09e+06 M⁻¹ s⁻¹; in experiment [6], 1.41e+06 M⁻¹ s⁻¹. The kon in experiment [7] was 1.62e+06 M⁻¹ s⁻¹.
